The target in assay [1] is T1, recombinant human MFAP4 with RGD integrin binding motif mutated to AAA (human, UniProt P55083 22-255).
T1 construct: mature; also called human MFAP4 RGD-AAA mutation
T1 sequence (looked up): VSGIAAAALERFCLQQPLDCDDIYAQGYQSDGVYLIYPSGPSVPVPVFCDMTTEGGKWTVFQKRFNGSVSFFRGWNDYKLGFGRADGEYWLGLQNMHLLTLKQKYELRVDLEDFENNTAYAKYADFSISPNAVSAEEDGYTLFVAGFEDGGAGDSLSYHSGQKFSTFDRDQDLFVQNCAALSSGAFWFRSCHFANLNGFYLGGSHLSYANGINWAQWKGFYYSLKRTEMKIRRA
As to the kind of experiment: direct ELISA, biotinylated antibody on coated recombinant human MFAP4 with RGD mutated to AAA, streptavidin-HRP. The protocol: (§1) 96-well plates (Nunc-MaxiSorp) (Nunc™) were coated with 0.5 μg recombinant mouse MFAP4, recombinant human MFAP4 and recombinant human MFAP4 with the RGD-sequence mutated to AAA in PBS O.N at 4° C. Coating was followed by washing and then blocking in TBS/Tw O.N at 4° C. Blocking was followed by addition of biotinylated antibodies diluted 2-fold from an initial concentration of 100 ng/ml. The plates were then incubated for 2 hours at R.T. The plates were washed three times in TBS/Tw and incubated for 20 minutes with Strepavidin Horseradish Peroxidase (HRP) conjugate (Invitrogen) diluted 1:2000 in TBS/Tw. After final three washes, the amount of bound enzyme was estimated by adding OPD (0.8 mg/ml, Kementec, Taastrup, Denmark) dissolved in substrate buffer (0.03% freshly prepared H₂O₂) and allowed to react for 15 minutes in the dark at RT. Colour development was stopped by the addition of 100 μl 1 M H₂SO₄, and the plates were read at OD₄₉₂ nm with OD₆₀₀ nm as reference.
A general note: ELISA stands for enzyme-linked immunosorbent assay.

The target of assay [2] is T2, recombinant human MFAP4 (human, UniProt P55083 22-255).
T2 construct: mature; also called rhMFAP4; hrMFAP4
T2 sequence (looked up): T1 sequence (looked up) with A5R, A6G, A7D
As to the kind of experiment: competition ELISA on immobilized recombinant human MFAP4; competitor: biotinylated HG HYB 7-5 at 0.5 µg/ml. The procedure:
(§2) Biotinylated A) HG HYB 7-5 (biotinHYB7-5), B) hAS0326 ([…]) and C) mAS0326 (bmAS0326) at a fixed concentration of 0.5 μg/ml were mixed with unlabelled IgG isotype control, HG HYB 7-18 (HYB7-18), HG HYB 7-5 (HYB7-5), hAS0326 and mAS0326 in a 2-fold dilution from 20 μg/ml. […] Only HG Hyb 7-5 was capable of inhibiting the HG HYB 7-5 interaction with target. In contrast, mAS0326 was capable of inhibiting hAS0326 binding to target and vice versa.
(§3) 96-well plates (Nunc-MaxiSorp) were coated with 0.5 μg recombinant human MFAP4 in PBS O.N at 4° C. followed by washing and then blocking in TBS/Tw O.N at 4° C. Biotinylated Mab (0.5 μg/ml) and unlabeled MAbs (diluted 2-fold from 20 μg/ml to 156 ng/ml) were premixed in a separate microtiterplate in TBS/Tw and then added to the MFAP4 coated microtiter plate. The plates were following incubated for 2 hours at R.T. The plates were washed three times in TBS/Tw and incubated for 20 min with Strepavidin Horseradish Peroxidase (HRP) conjugate (Invitrogen) diluted 1:2000 in TBS/Tw. […] Colour development was stopped by the addition of 100 μl 1 M H₂SO₄, and the plates were read at OD₄₉₂ nm with OD₆₀₀ nm as reference.

In assay [3] the target is T3, recombinant mouse MFAP4 (mouse, UniProt Q9D1H9 23-257).
T3 construct: mature; The expression plasmid is pcDNA5/FRT/V5-His TOPO TA; also called murine MFAP4; mouse serum MFAP4
T3 sequence (looked up): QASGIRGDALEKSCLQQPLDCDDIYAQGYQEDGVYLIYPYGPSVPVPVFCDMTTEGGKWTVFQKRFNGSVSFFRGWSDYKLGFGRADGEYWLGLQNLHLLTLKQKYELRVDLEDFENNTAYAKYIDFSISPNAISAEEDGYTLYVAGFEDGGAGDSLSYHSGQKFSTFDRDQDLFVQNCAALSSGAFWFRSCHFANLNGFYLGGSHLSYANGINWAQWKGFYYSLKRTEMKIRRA
Kind of assay: direct ELISA, biotinylated antibody on coated recombinant mouse MFAP4, streptavidin-HRP. The protocol:
as §1

The target of assay [4] is T2, recombinant human MFAP4. As to the kind of experiment: SPR, Biacore T200. For orientation: SPR reads the build-up and loss of mass on a sensor chip optically.
Assay [5] deals with T2, recombinant human MFAP4. As to the kind of experiment: competition ELISA on immobilized recombinant human MFAP4; competitor: biotinylated hAS0326 at 0.5 µg/ml. The protocol:
as §2, §3

In assay [6] the target is T2, recombinant human MFAP4. Kind of assay: competition ELISA on immobilized recombinant human MFAP4; competitor: biotinylated mAS0326 at 0.5 µg/ml. The procedure:
as §2, §3

Residue numbers refer to the chain shown, from its start.

Experimental findings from patent publication US20230047179A1 (SYDDANSK UNIVERSITET, published 2023) are described below.

B1: HG HYB 7-5 (antibody, V domains shown)
VH: EVQLQQSGPELVKPGASVKLSCKTSGYTFTSYDMNWVKQRPGQGLEWIGWIFPRDGSTKFNEKFKGKATLTVDTSSTTAYMELHSLTSEDSAVYFCARAEIFFDYGFDYWGQGTTLTVSS
VL: DIVMTQSTALMAASPGEKVTITCSVSSSISSSNLHWYQQKSETSPKSWIYGTSNLASGVPGRFSGSGSGTSYSLTISSVEAEDAATYYCQQWSSYPLTFGGGTKLEIK
notes: also called biotinHYB7-5
Consider B1, for which the binding result in assay [1] and in assay [3] was “no binding (tested: 100 ng/ml)” each time. Besides, the “IC50 (read off the curve)” value in assay [2] was around 0.8 mg/L.

B2: mAS0326 (antibody, V domains shown)
VH: QVQLQQPGADLVKPGTSVKLSCKASGFTFTSYWMHWVKQRPGQGLEWIGVIHPNSGNTKYNEKFRSEATLTVDKSSNTAYIQLSSLTSEDSAVYYCAREMWNYGNSWYFDVWGTGTTVTVSS
VL: DVQIIQSPSYLAASPGETITINCRASKSISKYLAWYQERPGKTNKLLIYSGSTLQSGIPSRFSGSGSGTDFTLTISSLEPEDFAMYYCQQHNEYPFTFGAGTKLELK
notes: Murine hybridoma monoclonal antibody raised against human recombinant MFAP4; also called biotinmAS0326; bmAS0326
Regarding B2, in assay [4], the Kd was found to be 0.14 nM. Also, the “IC50 (read off the curve)” value in assay [5] and in assay [6] was around 0.9 mg/L in each case. Moreover, the binding result in assay [3] is reported as “binds”.

B3: Chimeric antibody (mAS0326 with human Fc, CHO expression) (antibody, V domains shown)
VH: B2 VH
VL: B2 VL
Turning to B3, the Kd in assay [4] came out at 0.504 nM.

One may read the Kd as the concentration at which binding is half-saturated.
